According to the supplement of paper PMC9112550, “Optimization of the antimicrobial peptide Bac7 by deep mutational scanning” (BMC Biology, 2022):

The sequences below were run on Escherichia coli TOP10 (assay: shrunken log2 fold change of peptide-encoding DNA abundance (4.5 h post-induction vs induction); higher = less antimicrobial activity (less host growth inhibition)). Conditions: time post-induction: 4.5 h; library: site-saturation at positions 5, 18, 19, 20.
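Further: peptides expressed intracellularly from a pBAD plasmid library in pooled LB shake-flask culture, induced with 0.3% L-arabinose, DNA abundance read by NGS, three biological replicates, DESeq2 with apeglm shrinkage.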

Sequence | shrunken log2 fold change
RRIRKRPPRLPRPRPRPEMGPRP | 0.502
RRIRVRPPRLPRPRPRPFHYPRP | -0.318
RRIRFRPPRLPRPRPRPCDVPRP | 0.0119
RRIRKRPPRLPRPRPRPILIPRP | 0.0193
RRIRWRPPRLPRPRPRPPNWPRP | 0.603
RRIRVRPPRLPRPRPRPFRLPRP | -0.267
RRIRKRPPRLPRPRPRPKNYPRP | 0.0189
RRIRHRPPRLPRPRPRPLACPRP | 0.0188
RRIRLRPPRLPRPRPRPNIIPRP | -0.313
RRIRDRPPRLPRPRPRPGRCPRP | 0.53
RRIRYRPPRLPRPRPRPHTGPRP | -1.06
RRIRHRPPRLPRPRPRPWASPRP | -0.0831
RRIRPRPPRLPRPRPRPNMEPRP | 0.0784
RRIRCRPPRLPRPRPRPCFQPRP | -0.212
RRIRDRPPRLPRPRPRPSRDPRP | 0.00173
RRIRFRPPRLPRPRPRPEMQPRP | 0.0943
RRIRDRPPRLPRPRPRPMMPPRP | -0.00348
RRIRKRPPRLPRPRPRPYPGPRP | -0.142
RRIRCRPPRLPRPRPRPQMQPRP | -0.347
RRIRNRPPRLPRPRPRPGISPRP | 0.0154
RRIRGRPPRLPRPRPRPKNLPRP | 0.121
RRIRGRPPRLPRPRPRPMYQPRP | -0.0304
RRIRHRPPRLPRPRPRPSVKPRP | -0.364
RRIRCRPPRLPRPRPRPPTFPRP | -0.331
RRIRDRPPRLPRPRPRPGHLPRP | -0.000122

Sequence | shrunken log2 fold change
RRIRNRPPRLPRPRPRPQFPPRP | -0.148
RRIRRRPPRLPRPRPRPESTPRP | 0.571
RRIRARPPRLPRPRPRPHSLPRP | 0.314
RRIRMRPPRLPRPRPRPCTVPRP | -0.0102
RRIRRRPPRLPRPRPRPTNGPRP | -0.168
RRIRQRPPRLPRPRPRPFWRPRP | -0.044
RRIRLRPPRLPRPRPRPMGIPRP | 0.0924
RRIRIRPPRLPRPRPRPGCTPRP | -0.268
RRIRRRPPRLPRPRPRPKPRPRP | 0.825
RRIRRRPPRLPRPRPRPFFFPRP | 0.504
RRIRHRPPRLPRPRPRPHAMPRP | -0.00419
RRIRPRPPRLPRPRPRPFFYPRP | -0.214
RRIRHRPPRLPRPRPRPENMPRP | -0.042
RRIRIRPPRLPRPRPRPAWQPRP | 0.342
RRIRQRPPRLPRPRPRPCVVPRP | 0.0959
RRIRGRPPRLPRPRPRPVSCPRP | 0.885
RRIRFRPPRLPRPRPRPWWMPRP | -0.168
RRIRHRPPRLPRPRPRPLQLPRP | -0.213
RRIRMRPPRLPRPRPRPWGVPRP | 0.187
RRIRWRPPRLPRPRPRPVSFPRP | 0.169
RRIRNRPPRLPRPRPRPKDSPRP | -0.0312
RRIRQRPPRLPRPRPRPMFLPRP | -0.38
RRIRDRPPRLPRPRPRPRMGPRP | 0.161
RRIRYRPPRLPRPRPRPHDAPRP | -0.27
RRIRNRPPRLPRPRPRPNNFPRP | -0.447

Sequence | shrunken log2 fold change
RRIRRRPPRLPRPRPRPTETPRP | 0.137
RRIRIRPPRLPRPRPRPYNAPRP | -0.734
RRIRHRPPRLPRPRPRPMSWPRP | -0.106
RRIRDRPPRLPRPRPRPKQGPRP | 0.0662
RRIRHRPPRLPRPRPRPCNGPRP | -0.00865
RRIRYRPPRLPRPRPRPIFDPRP | -0.737
RRIRDRPPRLPRPRPRPAKAPRP | 0.0972
RRIRKRPPRLPRPRPRPLAKPRP | 0.614
RRIRSRPPRLPRPRPRPAYHPRP | -0.1
RRIRHRPPRLPRPRPRPDNVPRP | -0.02
RRIRTRPPRLPRPRPRPMWEPRP | -0.0158
RRIRQRPPRLPRPRPRPIPWPRP | 0.0351
RRIRERPPRLPRPRPRPSCWPRP | 0.101
RRIRMRPPRLPRPRPRPVVWPRP | 1.57
RRIRNRPPRLPRPRPRPIYCPRP | -0.858
RRIRSRPPRLPRPRPRPQEYPRP | -0.257
RRIRPRPPRLPRPRPRPVESPRP | -0.0537
RRIRFRPPRLPRPRPRPWLPPRP | -0.0149
RRIRCRPPRLPRPRPRPHNCPRP | -0.491
RRIRFRPPRLPRPRPRPPLAPRP | 0.628
RRIRMRPPRLPRPRPRPPGLPRP | 0.702
RRIRTRPPRLPRPRPRPPPYPRP | -0.000222
RRIRERPPRLPRPRPRPIMRPRP | -0.102
RRIRRRPPRLPRPRPRPHNEPRP | -0.0783
RRIRTRPPRLPRPRPRPIIEPRP | -0.565

Sequence | shrunken log2 fold change
RRIRNRPPRLPRPRPRPNFYPRP | -0.225
RRIRYRPPRLPRPRPRPYRHPRP | -1.4
RRIRVRPPRLPRPRPRPGCEPRP | 2.45
RRIRMRPPRLPRPRPRPSYFPRP | -0.293
RRIRPRPPRLPRPRPRPWFKPRP | -0.125
RRIRMRPPRLPRPRPRPEAGPRP | 2.36
RRIRWRPPRLPRPRPRPYDAPRP | -0.189
RRIRNRPPRLPRPRPRPNNHPRP | -0.741
RRIRCRPPRLPRPRPRPWELPRP | 0.268
RRIRRRPPRLPRPRPRPPVGPRP | 0.366
RRIRKRPPRLPRPRPRPHRSPRP | 0.0882
RRIRARPPRLPRPRPRPVMHPRP | 0.191
RRIRSRPPRLPRPRPRPIKFPRP | -0.0229
RRIRGRPPRLPRPRPRPSAEPRP | 2.33
RRIRWRPPRLPRPRPRPQITPRP | -0.216
RRIRNRPPRLPRPRPRPNVLPRP | -0.178
RRIRCRPPRLPRPRPRPEMAPRP | 0.532
RRIRVRPPRLPRPRPRPFFHPRP | 0.145
RRIRTRPPRLPRPRPRPDIYPRP | -0.138
RRIRSRPPRLPRPRPRPTSTPRP | -0.236
RRIRYRPPRLPRPRPRPFMCPRP | -0.233
RRIRTRPPRLPRPRPRPRGGPRP | 0.334
RRIRSRPPRLPRPRPRPLGNPRP | -0.43
RRIRVRPPRLPRPRPRPCLKPRP | -0.469
RRIRIRPPRLPRPRPRPFCYPRP | -0.514

Sequence | shrunken log2 fold change
RRIRKRPPRLPRPRPRPCHKPRP | 0.0108
RRIRIRPPRLPRPRPRPHKHPRP | -0.881
RRIRVRPPRLPRPRPRPEEKPRP | -0.0261
RRIRTRPPRLPRPRPRPIGDPRP | -0.293
RRIRERPPRLPRPRPRPMGNPRP | 0.0248
RRIRFRPPRLPRPRPRPHGGPRP | 0.0953
RRIRHRPPRLPRPRPRPTGKPRP | -0.00448
RRIRMRPPRLPRPRPRPTKCPRP | 0.331
RRIRGRPPRLPRPRPRPSMHPRP | 0.421
RRIRPRPPRLPRPRPRPRIEPRP | 0.175
RRIRPRPPRLPRPRPRPMARPRP | 0.154
RRIRERPPRLPRPRPRPSTFPRP | 2.07
RRIRTRPPRLPRPRPRPAWIPRP | -0.27
RRIRLRPPRLPRPRPRPNHRPRP | 0.00288
RRIRNRPPRLPRPRPRPGDKPRP | -0.105
RRIRMRPPRLPRPRPRPRRPPRP | 1.16
RRIRMRPPRLPRPRPRPVSFPRP | 0.000809
RRIRIRPPRLPRPRPRPVDGPRP | -0.169
RRIRPRPPRLPRPRPRPNVPPRP | -0.11
RRIRRRPPRLPRPRPRPYWEPRP | 0.0331
RRIRERPPRLPRPRPRPESFPRP | 0.0447
RRIRWRPPRLPRPRPRPGVAPRP | 0.821
RRIRNRPPRLPRPRPRPIFIPRP | -0.44
RRIRYRPPRLPRPRPRPMPTPRP | 0.0288
RRIRNRPPRLPRPRPRPDVEPRP | -0.00443

Sequence | shrunken log2 fold change
RRIRNRPPRLPRPRPRPCEKPRP | -0.0478
RRIRNRPPRLPRPRPRPVRGPRP | 0.649
RRIRCRPPRLPRPRPRPGPKPRP | 0.3
RRIRRRPPRLPRPRPRPAPFPRP | 0.863
RRIRFRPPRLPRPRPRPCMQPRP | -0.163
RRIRNRPPRLPRPRPRPKHDPRP | -0.287
RRIRHRPPRLPRPRPRPNWNPRP | -0.451
RRIRYRPPRLPRPRPRPIGEPRP | -0.135
RRIRPRPPRLPRPRPRPSNRPRP | -0.783
RRIRWRPPRLPRPRPRPVTHPRP | -0.0273
RRIRSRPPRLPRPRPRPELKPRP | -0.0512
RRIRWRPPRLPRPRPRPPWLPRP | 0.526
RRIRRRPPRLPRPRPRPKVYPRP | -0.0919
RRIRSRPPRLPRPRPRPEANPRP | 0.542
RRIRWRPPRLPRPRPRPPTQPRP | 0.312
RRIRGRPPRLPRPRPRPEYLPRP | 0.468
RRIRWRPPRLPRPRPRPIYIPRP | -0.889
RRIRWRPPRLPRPRPRPHYPPRP | -0.225
RRIRHRPPRLPRPRPRPKVQPRP | 0.146
RRIRFRPPRLPRPRPRPKDTPRP | 0.0365
RRIRFRPPRLPRPRPRPNWTPRP | -0.00237
RRIRWRPPRLPRPRPRPVTVPRP | -0.194
RRIRFRPPRLPRPRPRPREYPRP | -0.415
RRIRGRPPRLPRPRPRPKPKPRP | 0.601
RRIRKRPPRLPRPRPRPYQIPRP | -0.000276
